This note sets out measurements from the RNAGym collection of RNA variant scans (doi:10.7554/elife.80360).

B1: HDV Ribozyme (parent)
chain: GGCCGGCAUGGUCCCAGCCUCCUCGCUGGCGCCGGCUGGGCAACAUUCCGAGGGGACCGUCCCCUCGGUAAUGGCGAAUGGGACCCA

This series covers variants of B1. Description: self-cleavage, relative activity (ratio to wild type); higher = more cleavage; co-transcriptional.
On to G52A G68U, for which the self-cleavage turned out to be 0.591. The result for C32A A87U reads 0.183; that for C36A C49G, 0.0297; that for C30G U79C, 0.0496. For G50C C64A the value was 0.389; for C24G A51C, 0; for G28C C57U, 0.0277.

As for C7A G11A, the self-cleavage was 0.0674. For C14G C26U, the self-cleavage came out at 1.18. Turning to C62U G74A, the self-cleavage is 0.383.

G54C G74C: the self-cleavage amounted to 0.198.

G74C C84U: the self-cleavage stood at 0.196. For A8G U79A the value was 0.692; for C15G C85G, 0.196. In the case of G1A G68U, the self-cleavage was found to be 0.178. For C7A G52U the value was 0.462; for G28C A43C, 0.0573.

Regarding C62A C75G, the self-cleavage came to 0.0519. For the variant A43C U46A, the self-cleavage was found to be 0.877. For C4A A43G the value was 0.158; for C3U A70U, 0.678. The result for A8G U46A reads 0.723; that for G81A A87U, 0.565; that for C18A G29U, 0.821. For C57G G74C the value was 0.446; for G68C A78G, 0.426; for G40C U46C, 0.117.

For G17A G40C, the self-cleavage was determined as 0.113. For U60G G67C the value was 0.98; for C22A A71G, 0.393. For G28U G67U the value was 0.137; for G10U G55C, 0.831. The result for U9A U23C reads 1.08; that for G40C G67U, 0.323; that for C15U A45C, 0.277. In the case of G39U G40C, the self-cleavage came to 0.451. For C7U G39C the value was 0.0923. The result for G10C A78U reads 0.222; that for U20G G34A, 0. On to C49U G50U, for which the self-cleavage worked out at 0.941. With C24A G50C, the self-cleavage came out at 0.855. Take C3A G55U: the self-cleavage worked out at 0.563. For G55C C85U the value was 0.923; for A8G C86U, 1.11; for U60C A70U, 1.15.

As to G1A A51C, the self-cleavage is 0.0831. For A8C G39U the value was 0.381.

For C57U C58G, the self-cleavage came to 0.762.

Consider C30A C36U, for which the self-cleavage came out at 0.148. The result for A51G U65G reads 0.682; that for C3U A8C, 0.269. For G6A U60C the value was 0.789. A16U C48U: the self-cleavage came out at 1.07.

As to G74U C86A, the self-cleavage amounted to 0.389. For U23C C24G the value was 0.0437; for U46C C66A, 0.849; for C18A G38A, 0.113.

For A16U A77U, the self-cleavage came out at 0.511.

As for A8G A83U, the self-cleavage is 0.246.

Consider A51G A71G, for which the self-cleavage was found to be 0.752. The result for U37A A43G reads 0.0554; that for G2A G28U, 0.0364; that for C14G G68U, 0.277.

Regarding U20G C64U, the self-cleavage was found to be 0.291. On to A8U U9G, for which the self-cleavage came out at 0.997. The result for G39U G54C reads 0.76. For G38C C41A, the self-cleavage amounted to 0.612. For C30A U79G the value was 0.256. The result for U46G G53U reads 0.262; that for C66G A87U, 0.853. For C36U U37A the value was 0.0978.

For C63A A83U, the self-cleavage is 0.77. The result for C32G G40U reads 0.0791.

In the case of U23G C66A, the self-cleavage was 0.724. The result for G54C G73U reads 0.205.

For the variant C30A G38A, the self-cleavage is 0.219. For C61U U72G the value was 0.567; for C49A C85G, 0.762. The result for G2U C21A reads 0.0437; that for G55A C58G, 0.941. For C18G A43U the value was 0.189. For the variant G38C A43C, the self-cleavage came out at 0.26.

As for C26A C75U, the self-cleavage was 0.203. Regarding G38A G39U, the self-cleavage came to 0.0665.

On to G5C G29U, for which the self-cleavage was found to be 0. For C4A C22U the value was 0.148; for C22A U72G, 0.332; for G59U C61G, 1.2.

Turning to C22U C75G, the self-cleavage came out at 0.208.

For the variant G81A C85A, the self-cleavage worked out at 0.35. The result for A42C C75A reads 0.116; that for U37A U65A, 0.122; that for G1C G68U, 0.17.

Turning to G50C, the self-cleavage was found to be 0.963. As for U27C G76C, the self-cleavage was determined as 1.21.

For A51U G76C, the self-cleavage is 1.23. For G39A G67U the value was 0.351; for A42U C64G, 0.574; for G29U A51C, 0.0898. For C19A G52U the value was 0.149; for G40U G54U, 0.665. The result for C58A A71G reads 0.897; that for G5C G11A, 0.0449; that for U72G U79C, 0.297.

Take G76U A87C: the self-cleavage was found to be 1.17. Consider C57A G68C, for which the self-cleavage turned out to be 1.06. Turning to C24G A83G, the self-cleavage is 0.153. For C15G C21G the value was 0.

Turning to U60C U65A, the self-cleavage was found to be 1.27. For A45C C61A the value was 0.671. For A16G G76U, the self-cleavage came to 1.29. As for G25U G52C, the self-cleavage turned out to be 0.208.

Turning to G55C G80U, the self-cleavage stood at 0.216. For C24A A87U the value was 0.749. For G35U C86G the value was 0.397; for G67A C75G, 0.181; for A78U G82C, 0.0302. The result for G34C G76C reads 0.332; that for G31A C75G, 0.086; that for U12A G80U, 0.0968.

Regarding C62A C86U, the self-cleavage was determined as 1.03.

Consider U60G C61U, for which the self-cleavage is 1.06. The result for G6C C18A reads 0.0791. The result for A8G C13U reads 0. For A16U C63A the value was 1.08.

For the variant C26U G52U, the self-cleavage came out at 0.956. The result for U46G C66A reads 0.308; that for C18U G54C, 0.606; that for C62G A77C, 0.353.

Consider G55C U65A, for which the self-cleavage was 0.88. For C24U G73U the value was 0.122. On to G25A G82U, for which the self-cleavage is 0.119. Take A16C G53A: the self-cleavage turned out to be 0.674. For C3U C30G the value was 0; for U60G C63A, 0.831; for G10A G76C, 0.772. For G34U G38A the value was 0.0702; for U12C C84G, 0.391; for G29C G55A, 0.166. Turning to A83C A87C, the self-cleavage was 0.499.

A42G G80C: the self-cleavage was 0.364. For A43U G55C the value was 0.399; for A16G C63G, 0.767. The result for C15U G54C reads 1; that for U46G A78U, 0.0573; that for G74A G76U, 0.727.

Consider G35C G52C, for which the self-cleavage is 0.128. G35C G52A: the self-cleavage was found to be 0.233.

Turning to G1U G68A, the self-cleavage stood at 0.496. For C30G C61U the value was 0.026; for A43U C44A, 1.16.

With C7U C41U, the self-cleavage was 0.802. The result for U9C A56C reads 1.06; that for U72G G81C, 0.0791. For U23G G28C the value was 0.

In the case of G31U C86U, the self-cleavage was 0.453. The result for G59C A83U reads 0.469; that for U27A C33A, 0.256; that for C3A G5C, 0.0339. Consider U27A G28U, for which the self-cleavage was determined as 0.158. For G25U G73C the value was 0.0415; for C26A C32G, 0; for C21G C44U, 0.0898. In the case of G38C C49G, the self-cleavage worked out at 0.156.

For G11A G67A, the self-cleavage stood at 0.0841. Take G54C U79C: the self-cleavage is 0.482. The result for C13U U65G reads 0.895.
